Test results taken from patent publication US20030165934.

Biological target: T1, recombinant human Rad17 protein tagged with a Flag epitope at its N terminus, purified from baculovirus infected insect cells
T1 chain: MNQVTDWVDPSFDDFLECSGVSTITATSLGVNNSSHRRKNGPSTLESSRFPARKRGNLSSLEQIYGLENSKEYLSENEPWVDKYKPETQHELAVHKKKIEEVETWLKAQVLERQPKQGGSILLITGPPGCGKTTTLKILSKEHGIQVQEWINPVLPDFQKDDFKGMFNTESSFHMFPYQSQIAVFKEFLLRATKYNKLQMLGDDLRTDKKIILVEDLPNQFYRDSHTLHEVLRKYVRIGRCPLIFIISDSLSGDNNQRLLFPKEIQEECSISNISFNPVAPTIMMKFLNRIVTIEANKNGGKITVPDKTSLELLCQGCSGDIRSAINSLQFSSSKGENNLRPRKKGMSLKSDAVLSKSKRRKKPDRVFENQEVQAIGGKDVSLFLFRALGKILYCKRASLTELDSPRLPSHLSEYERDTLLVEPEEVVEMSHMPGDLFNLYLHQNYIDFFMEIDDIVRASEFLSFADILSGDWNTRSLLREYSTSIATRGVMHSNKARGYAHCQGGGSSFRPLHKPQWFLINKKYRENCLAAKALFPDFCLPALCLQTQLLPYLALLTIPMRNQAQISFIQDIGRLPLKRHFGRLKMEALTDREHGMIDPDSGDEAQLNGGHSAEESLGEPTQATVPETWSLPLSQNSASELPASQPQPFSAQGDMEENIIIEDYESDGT

B1: ATR-ATRIP complex reconstituted in vitro from purified ATR and purified ATRIP (protein)
chain 1: not shown
chain 2: MAGTSAPGSKRRSEPPAPRPGPPPGTGHPPSKRARGFSAAAAPDPDDPFGAHGDFTADDLEELDTLASQALSQCPAAARDVSSDHKVHRLLDGMSKNPSGKNRETVPIKDNFELEVLQAQYKELKEKMKVMEEEVLIKNGEIKILRDSLHQTESVLEEQRRSHFLLEQEKTQALSDKEKEFSKKLQSLQSELQFKDAEMNELRTKLQTSERANKLAAPSVSHVSPRKNPSVVIKPEACSPQFGKTSFPTKESFSANMSLPHPCQTESGYKPLVGREDSKPHSLRGDSIKQEEAQKSFVDSWRQRSNTQGSILINLLLKQPLIPGSSLSLCHLLSSSSESPAGTPLQPPGFGSTLAGMSGLRTTGSYDGSFSLSALREAQNLAFTGLNLVARNECSRDGDPAEGGRRAFPLCQLPGAVHFLPLVQFFIGLHCQALQDLAAAKRSGAPGDSPTHSSCVSSGVETNPEDSVCILEGFSVTALSILQHLVCHSGAVVSLLLSGVGADSAAGEGNRSLVHRLSDGDMTSALRGVADDQGQHPLLKMLLHLLAFSSAATGHLQASVLTQCLKVLVKLAENTSCDFLPRFQCVFQVLPKCLSPETPLPSVLLAVELLSLLADHDQLAPQLCSHSEGCLLLLLYMYITSRPDRVALETQWLQLEQEVVWLLAKLGVQSPLPPVTGSNCQCNVEVVRALTVMLHRQWLTVRRAGGPPRTDQQRRTVRCLRDTVLLLHGLSQKDKLFMMHCVEVLHQFDQVMPGVSMLIRGLPDVTDCEEAALDDLCAAETDVEDPEVECG
phosphorylated Rad17 on DNA (Ser635P): human replication protein A (RPA) stimulates the phosphorylation of Rad17 by the ATR-ATRIP complex
